These results are taken from paper PMC11360004.

The target of experiment [1] is Kelch-like ECH-associated protein 1 (Keap1), Cy3-labeled (UniProt Q14145). Kind of experiment: MST; Monolith NT.115; Cy3-labeled Keap1 at constant concentration, MNT titrated; 25 mM sodium phosphate, 150 mM NaCl, pH 8.0.
In experiment [2] the target is α/β importin complex labeled with Cy3 (UniProt Q14974). The experiment can be described thus: MST; Cy3-labeled β-importin in the α/β importin complex at constant concentration, MNT titrated; 20 mM HEPES, 110 mM KCl, 5 mM NaHCO3, 5 mM MgCl2, 0.1 mM CaCl2, 1 mM EGTA, 1 mM DTT, pH 7.4.
In experiment [3] the target is epidermal growth factor receptor (EGFR) on A431 cells (human (endogenous in A431)) (UniProt P00533). The experiment can be described thus: fluorescent-labeled ligand competitive binding on cells (plate reader); A431 cells fixed with 0.5% paraformaldehyde in 48-well plates; 25 nM Alexa-647-labeled MNT1 and different concentrations of MNTC or MNTN; DMEM with 1% BSA, 15 mM HEPES, pH 7.3, overnight at +4 °C.

For orientation: Kd means the constant that tells how readily two partners part at equilibrium.

Sequence of UniProt Q14145 (Q14145 whole entry): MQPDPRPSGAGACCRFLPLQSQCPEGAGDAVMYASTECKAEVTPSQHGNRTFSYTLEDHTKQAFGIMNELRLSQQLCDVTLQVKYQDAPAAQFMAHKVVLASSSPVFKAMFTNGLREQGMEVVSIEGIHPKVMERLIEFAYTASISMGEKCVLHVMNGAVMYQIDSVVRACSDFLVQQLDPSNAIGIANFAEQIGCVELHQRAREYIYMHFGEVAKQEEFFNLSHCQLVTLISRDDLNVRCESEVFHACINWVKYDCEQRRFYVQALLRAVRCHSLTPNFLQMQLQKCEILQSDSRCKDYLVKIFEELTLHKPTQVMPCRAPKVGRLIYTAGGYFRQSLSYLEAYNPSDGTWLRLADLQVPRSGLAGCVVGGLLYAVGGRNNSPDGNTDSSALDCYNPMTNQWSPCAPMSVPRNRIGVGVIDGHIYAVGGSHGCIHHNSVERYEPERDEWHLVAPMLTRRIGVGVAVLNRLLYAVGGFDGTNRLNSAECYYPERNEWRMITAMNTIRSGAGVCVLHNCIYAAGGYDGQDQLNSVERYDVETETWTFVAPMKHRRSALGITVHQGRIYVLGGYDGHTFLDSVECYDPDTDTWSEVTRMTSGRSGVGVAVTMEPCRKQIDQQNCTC
Sequence of UniProt Q14974 (Q14974 whole entry, looked up, one chain of several): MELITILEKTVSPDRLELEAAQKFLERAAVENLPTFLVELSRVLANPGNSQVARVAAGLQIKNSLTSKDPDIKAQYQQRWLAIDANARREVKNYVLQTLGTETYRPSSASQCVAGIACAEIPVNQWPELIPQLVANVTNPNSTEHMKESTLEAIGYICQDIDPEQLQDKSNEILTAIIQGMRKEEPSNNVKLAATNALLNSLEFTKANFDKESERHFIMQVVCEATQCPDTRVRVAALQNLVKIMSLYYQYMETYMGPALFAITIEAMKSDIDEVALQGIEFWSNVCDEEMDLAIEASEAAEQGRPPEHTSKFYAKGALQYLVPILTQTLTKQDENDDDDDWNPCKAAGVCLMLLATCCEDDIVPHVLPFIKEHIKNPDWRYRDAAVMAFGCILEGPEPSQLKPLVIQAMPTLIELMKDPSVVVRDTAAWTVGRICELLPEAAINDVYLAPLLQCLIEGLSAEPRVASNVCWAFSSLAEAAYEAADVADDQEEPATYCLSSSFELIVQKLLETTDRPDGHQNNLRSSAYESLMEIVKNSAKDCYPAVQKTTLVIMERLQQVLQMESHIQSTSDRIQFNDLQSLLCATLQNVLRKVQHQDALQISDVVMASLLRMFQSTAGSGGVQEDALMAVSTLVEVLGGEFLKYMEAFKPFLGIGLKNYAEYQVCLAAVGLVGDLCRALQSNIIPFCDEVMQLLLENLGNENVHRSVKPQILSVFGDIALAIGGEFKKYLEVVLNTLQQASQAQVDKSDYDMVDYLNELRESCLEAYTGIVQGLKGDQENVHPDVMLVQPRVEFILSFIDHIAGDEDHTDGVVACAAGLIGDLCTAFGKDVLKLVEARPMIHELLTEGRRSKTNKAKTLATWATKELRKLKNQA

Take “DTox-HMP-NLS-EGF (original modular nanotransporter with full-size HMP carrier module) (from UniProt P24232 1-396)”: the Kd in experiment [1] came to 0.205 µM.

On to “DTox-HMPN-NLS-EGF (modular nanotransporter with the N-terminal fragment of HMP) (from UniProt P24232 1-136)”, for which the Kd is 0.428 µM in experiment [1], 0.16 µM in experiment [2] and 0.02 µM in experiment [3].
